The target of this data set is T1, caspase-3 substrate CGKRKGDEVDSG
T1 chain: CGKRKGDEVDSG

B1: caspase-3 (protein)
chain: SGISLDNSYKMDYPEMGLCIIINNKNFHKSTGMTSRSGTDVDAANLRETFRNLKYEVRNKNDLTREEIVELMRDVSKEDHSKRSSFVCVLLSHGEEGIIFGTNGPVDLKKITNFFRGDRCRSLTGKPKLFIIQACRGTELDCGIETDSGVDDDMACHKIPVEADFLYAYSTAPGYYSWRNSKDGSWFIQSLCAMLKQYADKLEFMHILTRVNRKVATEFESFSFDATFHAKKQIPCIVSMLTKELYFYH
As for B1, the “cleavage of the immobilised substrate, read by SAMDI mass spectrometry” value is given as “we also observed a peak corresponding to the caspase-3 product at 144 Da lower than the initial substrate mass”.
